According to PMC6486541 (Nucleic Acids Research, 2019):

T1: OsWRKY45-DBD (OsWRKY45-1) (Oryza sativa Japonica subspecies, UniProt Q5W6D6 104-182)
T1 sequence: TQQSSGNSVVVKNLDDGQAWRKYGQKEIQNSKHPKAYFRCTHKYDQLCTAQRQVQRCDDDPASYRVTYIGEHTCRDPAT

T2: OsWRKY45-DBD L150M (= OsWRKY45-2-DBD) (Oryza sativa Japonica subspecies, UniProt Q5W6D6 104-182, L150M)
T2 sequence: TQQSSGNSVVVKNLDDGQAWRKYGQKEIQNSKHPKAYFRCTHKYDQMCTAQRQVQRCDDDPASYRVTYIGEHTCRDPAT

T3: OsWRKY45-DBD R142A (Oryza sativa Japonica subspecies, UniProt Q5W6D6 104-182, R142A)
T3 sequence: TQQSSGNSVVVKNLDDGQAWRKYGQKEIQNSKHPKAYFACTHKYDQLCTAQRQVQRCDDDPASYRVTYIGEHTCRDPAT


Tests used:
[1] = molecular target: T1, OsWRKY45-DBD (OsWRKY45-1); test: EMSA
AUC = molecular target: the molecule itself; test: AUC
[2] = molecular target: T2, OsWRKY45-DBD L150M (= OsWRKY45-2-DBD); test: BLI
[3] = molecular target: T1, OsWRKY45-DBD (OsWRKY45-1); test: BLI
OsWRKY45-DBD R142A = molecular target: T3, OsWRKY45-DBD R142A; test: BLI

Binder | binding result [1] | other results
MUT8A (dsDNA) DNA 1: GATATTTAACCGGA DNA 2: TCCGGTTAAATATC | no binding | 
MUT10A (dsDNA) DNA 1: GATATTTGAACGGA DNA 2: TCCGTTCAAATATC | no binding | 
OsWRKY45–DBD (DNA binding domain of OsWRKY45, residues 104–182) (domain or fragment) TQQSSGNSVVVKNLDDGQAWRKYGQKEIQNSKHPKAYFRCTHKYDQLCTAQRQVQRCDDDPASYRVTYIGEHTCRDPAT |  | stoichiometry N (AUC): 2
MUT11T (dsDNA) DNA 1: GATATTTGACTGGA DNA 2: TCCAGTCAAATATC | binds | 
MUT11A (dsDNA) DNA 1: GATATTTGACAGGA DNA 2: TCCTGTCAAATATC | no binding | 
MUT7C (dsDNA) DNA 1: GATATTCGACCGGA DNA 2: TCCGGTCGAATATC | no binding | 
DNA-1 (W-box DNA) (dsDNA) DNA 1: GATATTTGACCGGA DNA 2: TCCGGTCAAATATC |  | Kd [2]: 7.7 µM; Kd [3]: 4.6 µM; Kd (OsWRKY45-DBD R142A): 13.8 µM
MUT9C (dsDNA) DNA 1: GATATTTGCCCGGA DNA 2: TCCGGGCAAATATC | no binding | 
